Patent US20160144003A1 (Scripps Research, published 2016)
Positions count from the first letter of the chain named. Numbers in names are those of the source.

B1: wild-type human glycyl-tRNA synthetase (GlyRS) (enzyme)
chain: MDGAGAEEVLAPLRLAVRQQGDLVRKLKEDKAPQVDVDKAVAELKARKRVLEAKELALQPKDDIVDRAKMEDTLKRRFFYDQAFAIYGGVSGLYDFGPVGCALKNNIIQTWRQHFIQEEQILEIDCTMLTPEPVLKTSGHVDKFADFMVKDVKNGECFRADHLLKAHLQKLMSDKKCSVEKKSEMESVLAQLDNYGQQELADLFVNYNVKSPITGNDLSPPVSFNLMFKTFIGPGGNMPGYLRPETAQGIFLNFKRLLEFNQGKLPFAAAQIGNSFRNEISPRSGLIRVREFTMAEIEHFVDPSEKDHPKFQNVADLHLYLYSAKAQVSGQSARKMRLGDAVEQGVINNTVLGYFIGRIYLYLTKVGISPDKLRFRQHMENEMAHYACDCWDAESKTSYGWIEIVGCADRSCYDLSCHARATKVPLVAEKPLKEPKTVNVVQFEPSKGAIGKAYKKDAKLVMEYLAICDECYITEMEMLLNEKGEFTIETEGKTFQLTKDMINVKRFQKTLYVEEVVPNVIEPSFGLGRIMYTVFEHTFHVREGDEQRTFFSFPAVVAPFKCSVLPLSQNQEFMPFVKELSEALTRHGVSHKVDDSSGSIGRRYARTDEIGVAFGVTIDFDTVNKTPHTATLRDRDSMRQIRAEISELPSIVQDLANGNITWADVEARYPLFEGQETGKKETIEE
notes: Used as a GlyRS-His fusion protein in the neuropilin assays; also called WT GlyRS; WT; not shown: His tag
B2: human GlyRS G240R mutant (enzyme)
chain: B1 chain with G240R
notes: GlyRS-His fusion protein in the pull-down and cell assays; also called G240R GlyRS; not shown: His tag
B3: human GlyRS S581L mutant (enzyme)
chain: B1 chain with S581L
notes: also called S581L GlyRS; not shown: His tag
B4: human GlyRS G526R mutant (enzyme)
chain: B1 chain with G526R
notes: GlyRS-His fusion protein in the pull-down assay; also called G526R GlyRS; not shown: His tag
B5: human GlyRS L129P mutant (enzyme)
chain: B1 chain with L129P
notes: also called L129P GlyRS; L129P-His; not shown: His tag
B6: human GlyRS G598A mutant (enzyme)
chain: B1 chain with G598A
notes: Only in the dimerization measurement (sedimentation equilibrium); also called G598A GlyRS; not shown: the tag is not described
B7: recombinant neuropilin-1/Fc extracellular domain chimeric protein (R&D systems) (Fc fusion)
chain: FRSDKCGGTIKIENPGYLTSPGYPHSYHPSEKCEWLIQAPEPYQRIMINFNPHFDLEDRDCKYDYVEVIDGENEGGRLWGKFCGKIAPSPVVSSGPFLFIKFVSDYETHGAGFSIRYEIFKRGPECSQNYTAPTGVIKSPGFPEKYPNSLECTYIIFAPKMSEIILEFESFDLEQDSNPPGGVFCRYDRLEIWDGFPEVGPHIGRYCGQKTPGRIRSSSGILSMVFYTDSAIAKEGFSANYSVLQSSISEDFKCMEALGMESGEIHSDQITASSQYGTNWSVERSRLNYPENGWTPGEDSYREWIQVDLGLLRFVTAVGTQGAISKETKKKYYVKTYRVDISSNGEDWITLKEGNKAIIFQGNTNPTDVVFGVFPKPLITRFVRIKPASWETGISMRFEVYGCKITDYPCSGMLGMVSGLISDSQITASNQGDRNWMPENIRLVTSRTGWALPPSPHPYINEWLQVDLGDEKIVRGVIIQGGKHRENKVFMRKFKIAYSNNGSDWKMIMDDSKRKAKSFEGNNNYDTPELRAFTPLSTRFIRIYPERATHSGLGLRMELLGCEVEVPTAGPTTPNGNPVDECDDDQANCHSGTGDDFQLTGGTTVLATEKPTIIDSTIQSEFPTYGFNCEFGWGSHKTFCHWEHDSHAQLRWRVLTSKTGPIQDHTGDGNFIYSQADENQKGKVARLVSPVVYSQSSAHCMTFWYHMSGSHVGTLRVKLHYQKPEEYDQLVWMVVGHQGDHWKEGRVLLHKSLKLYQVIFEGEIGKGNLGGIAVDDISINNHIPQEDCAKPTDLDKKNTEIKIDETGSTPGYEEGKGDKNISRKPGNVLKTLDPI

Assays:
[1] = target: the molecule itself; experiment: sedimentation equilibrium AUC, monomer-dimer self-association
Protocol: FIGS. 8A-8F show sedimentation equilibrium analysis of WT and CMT-causing mutant human GlyRS proteins. Three cells containing different concentrations of each protein sample were centrifuged at 9000 rpm (solid curved line), 14000 rpm (mixed-dash curved line), and 19000 rpm (dash curved line). Absorbance data for each cell was collected at 280 nm and 230 nm wavelength. The meniscus (vertical dot-dash line) in each cell was set manually, while the bottom (vertical dash line) was allowed to float. Data within the fit limits (vertical solid lines) was globally fitted to the monomer-dimer self-association model in SEDPHAT. Data beyond approximately 1.5 absorbance was omitted in case of non-linearity of the detection instrumentation. The fits for the 9000, 14000, and 19000 rpm data are represented by the solid, mixed dash, and dash lines respectively.
WT and mutant GlyRSs were cloned and expressed as described (see Xie et al., Acta Crystallogr Sect F Struct Biol Cryst Commun 62:1243-1246, 2006), and purified to more than 99% homogeneity in three steps: nickel affinity, Mono Q and size exclusion chromatography. Sedimentation equilibrium experiments were performed in a Beckman Optima XL-1 analytical ultracentrifuge with integrated optical systems. All protein samples (0.5 μM, 1.25 μM, 2.5 μM) were prepared in DPBS buffer (2.67 mM potassium chloride, 1.47 mM potassium phosphate monobasic, 137.93 mM sodium chloride and 8.06 mM sodium phosphate dibasic, pH 7.2) and purified by size exclusion chromatography immediately prior to centrifugation. The buffer density and viscosity, and the protein partial specific volume were determined by SEDPHAT (see Lebowitz et al., Protein Sci. 11:2067-2079, 2002). Samples (180 μL) in two-channel cells were centrifuged in a Beckman An-60 Ti rotor at speeds of […] at 4° C. Equilibrium was reached after 36 hours for each speed and verified by comparison with a second scan taken every 6 hours. Data was collected at 280 nm and […]. Data sets consisting of 18 curves per protein (3 concentrations, 3 rotor speeds and 2 wavelengths each) were analyzed by global fitting to the monomer-dimer self-association model using the program SEDPHAT (Id.).

[2] = target: T1, GFP-neuropilin (NRP1) fusion protein on transfected cells; experiment: cell counts of confocal images, N2a cells expressing GFP-NRP1 incubated with GlyRS
T1 construct: whole, on cells; also called GFP-NRP1; NRP1-EGFP
Protocol: Confocal microscopy analysis was performed to assess the influence of GlyRS and CMT-associated GlyRS mutants on neuropilin-mediated neurite outgrowth. Mouse neuroblastoma N2a cells were transfected with either control pEGFP or NRP1-EGFP. After 24 hours, the cells were plated onto Fibronectin coated coverslips. Then N2a cells were then incubated with or without 200 nM wild-type GlyRS or CMT-associated GlyRS mutants (L129P, G240R, G526R) at 4° C. for 1 hour. Cells were then washed three times with DPBS buffer and fixed with 4% formaldehyde. The coverslips were mounted with Prolong Gold Antifade Reagent with DAPI (invitrogen) at 25° C. for overnight. Images were then taken using the Bio-Rad (Zeiss) Radiance 2100 Rainbow laser scanning confocal microscope (LSCM).

[3] = target: T2, human GlyRS P234KY mutant (human, UniProt P41250 55-739); experiment: bio-layer interferometry (Octet RED), NRP1-Fc on Protein G biosensors, global 1:1 fit of three concentrations
T2 sequence: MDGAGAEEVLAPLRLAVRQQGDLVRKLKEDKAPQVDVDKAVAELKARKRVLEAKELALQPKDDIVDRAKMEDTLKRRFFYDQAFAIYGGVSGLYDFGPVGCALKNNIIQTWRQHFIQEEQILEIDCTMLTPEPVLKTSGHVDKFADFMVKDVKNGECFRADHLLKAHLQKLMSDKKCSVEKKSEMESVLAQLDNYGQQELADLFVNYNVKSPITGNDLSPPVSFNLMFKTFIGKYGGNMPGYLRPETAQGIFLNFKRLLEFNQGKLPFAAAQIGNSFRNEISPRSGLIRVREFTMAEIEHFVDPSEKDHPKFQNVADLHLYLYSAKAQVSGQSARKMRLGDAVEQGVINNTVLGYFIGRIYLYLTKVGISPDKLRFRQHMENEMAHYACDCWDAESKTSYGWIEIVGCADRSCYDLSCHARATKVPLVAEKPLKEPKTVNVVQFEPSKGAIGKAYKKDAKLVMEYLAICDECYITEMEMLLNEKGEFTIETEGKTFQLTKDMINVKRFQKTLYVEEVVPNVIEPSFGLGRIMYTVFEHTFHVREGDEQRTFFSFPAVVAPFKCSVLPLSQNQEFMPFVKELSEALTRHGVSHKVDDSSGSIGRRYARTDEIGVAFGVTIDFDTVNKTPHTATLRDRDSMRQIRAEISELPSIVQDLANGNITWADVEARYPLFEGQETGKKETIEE

human GlyRS L129P mutant = target: B5; experiment: bio-layer interferometry (Octet RED), NRP1-Fc on Protein G biosensors, global 1:1 fit of five concentrations
Protocol: FIGS. 15A-15C show the binding affinity between various GlyRS polypeptides and neuropilin-1 (NRP-1). In FIG. 15A, the binding between NRP-1 and GlyRS (wild-type (WT), CMT-associated mutant L129P, and CMT-associated mutant P234KY) at 1 μM was compared by bio-layer interferometry in Octet RED system. No binding was detected between NRP-1 and WT GlyRS, but strong binding was detected between NRP-1 and each of the CMT-associated mutants L129P and P234KY.
The binding constants between GlyRS CMT mutants (L129P and P234KY) and Neuropilin-1 (NRP1) were measured using Octet RED (ForteBio, Inc.). Octet RED utilizes bio-layer interferometry (BLI) technology that enables real-time analysis of protein-protein interactions on the surface of a fiber optic biosensor. The protein of interest is firstly immobilized on the biosensor and then exposed to the protein analyte in solution. The binding of two proteins changes the optical properties of the biosensor, leading to a shift in the wavelength of reflected light. This shift in wavelength allows the measurement of the determination of the binding constant.

T1 sequence (O14786 22-923): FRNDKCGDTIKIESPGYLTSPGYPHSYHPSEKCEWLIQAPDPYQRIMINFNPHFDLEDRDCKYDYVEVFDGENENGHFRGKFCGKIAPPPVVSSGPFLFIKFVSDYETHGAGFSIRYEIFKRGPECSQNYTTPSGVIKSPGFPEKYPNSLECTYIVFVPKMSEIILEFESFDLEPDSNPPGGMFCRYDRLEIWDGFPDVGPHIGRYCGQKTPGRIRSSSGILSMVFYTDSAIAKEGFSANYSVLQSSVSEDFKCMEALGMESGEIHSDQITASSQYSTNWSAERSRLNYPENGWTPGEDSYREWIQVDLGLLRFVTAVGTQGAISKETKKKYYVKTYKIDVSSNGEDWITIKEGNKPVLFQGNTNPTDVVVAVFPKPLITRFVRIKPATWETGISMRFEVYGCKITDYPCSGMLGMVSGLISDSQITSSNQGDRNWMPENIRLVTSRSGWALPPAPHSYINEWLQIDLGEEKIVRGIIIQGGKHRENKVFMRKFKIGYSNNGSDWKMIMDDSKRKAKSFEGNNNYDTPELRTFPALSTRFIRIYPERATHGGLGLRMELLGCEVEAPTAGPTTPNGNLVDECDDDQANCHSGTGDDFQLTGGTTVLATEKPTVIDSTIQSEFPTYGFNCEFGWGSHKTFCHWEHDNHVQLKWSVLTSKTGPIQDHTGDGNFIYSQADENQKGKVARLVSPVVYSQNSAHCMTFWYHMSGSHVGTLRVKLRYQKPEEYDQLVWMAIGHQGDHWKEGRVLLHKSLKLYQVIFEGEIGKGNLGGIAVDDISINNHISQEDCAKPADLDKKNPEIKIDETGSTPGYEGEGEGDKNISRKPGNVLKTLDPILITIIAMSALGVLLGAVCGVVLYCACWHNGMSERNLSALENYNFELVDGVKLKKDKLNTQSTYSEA

Row | Binder | Kd [1] [nM] | Cell number % [2] [%] | fold increase in Kd of dimerization relative to WT GlyRS [1] [fold] | fold decrease in Kd of dimerization relative to WT GlyRS [1] [fold] | Kd [3] [nM] | Kd (human GlyRS L129P mutant) [nM]
1 | B1 | 560 | 8.6 |  |  |  | 
2 | B2 | 11000 | 42 | 20 |  |  | 
3 | B3 | 190 |  |  | 3 to 4 |  | 
4 | B4 |  | 20.7 |  | 3 to 4 |  | 
5 | B5 | 41000 | 37.7 | 73 |  |  | 
6 | B6 | 390 |  |  |  |  | 
7 | B7 |  |  |  |  | 162 | 36.8
